# From IntAct's records for PubMed 19691494
# B1: G-protein coupled receptor 15 (Pan troglodytes (Chimpanzee)), Q9BG77 (parent)
# chain: MDPEETSVYLDYYYATSPNSDIRETHSHVPYTSVFLPVFYTAVFLTGVLGNLVLMGALHFKPGSRRLIDIFIINLAASDFIFLVTLPLWVDKEASLGLWRTGSFLCKGSSYMISVNMHCSVLLLTCMSVDRYLAIVWPVVSRKFRRTDCAYVVCASIWFISCLLGLPTLLSRELTLIDDKPYCAEKKATPIKLIWSLVALIFTFFVPLLSIVTCYCCIARKLCAHYQQSGKHNKKLKKSIKIIFIVVAAFLVSWLPFNTFKFLAIVSGLRQEHYLPSAILQLGMEVSGPLAFANSCVNPFIYYIFDSYIRRAIVHCLCPCLKNYDFGSSTETSDSHLTKALSTFIHAEDFARRRKRSVSL
# Variants of: B1
# Conditions: with 1433b_human YWHAB
row,Variant,effect of a mutation on the interaction
1,S359A,disrupting interaction
